Reference: patent CN115960228A (UNIV XUZHOU MEDICAL, dated 2023)

Target: T1, CD19 protein on the cell surface (细胞表面的CD19蛋白) (human, UniProt P15391 20-556)
T1 construct: whole, on cells; also called 人CD19
T1 sequence (looked up): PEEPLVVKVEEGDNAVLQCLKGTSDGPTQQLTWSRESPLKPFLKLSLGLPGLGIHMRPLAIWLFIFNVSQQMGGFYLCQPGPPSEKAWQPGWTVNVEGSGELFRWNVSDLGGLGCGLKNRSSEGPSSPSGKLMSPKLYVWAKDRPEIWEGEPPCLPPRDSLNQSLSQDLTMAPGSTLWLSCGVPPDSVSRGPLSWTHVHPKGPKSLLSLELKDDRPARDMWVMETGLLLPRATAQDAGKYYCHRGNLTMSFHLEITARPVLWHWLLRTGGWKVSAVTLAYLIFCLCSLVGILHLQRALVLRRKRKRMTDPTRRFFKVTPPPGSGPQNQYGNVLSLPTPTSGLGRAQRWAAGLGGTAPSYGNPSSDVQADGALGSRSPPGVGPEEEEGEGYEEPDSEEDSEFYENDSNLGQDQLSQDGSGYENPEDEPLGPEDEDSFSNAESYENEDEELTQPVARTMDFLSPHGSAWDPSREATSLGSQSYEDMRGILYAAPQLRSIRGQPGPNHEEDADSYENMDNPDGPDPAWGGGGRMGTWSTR
Assay: flow cytometry on cells; antibody purified from cell supernatant or ascites, compared with hybridoma supernatant

- binding result: binds
B1: CD19-6E1B8抗体 (anti-human CD19 monoclonal antibody, clone 6E1B8) (antibody, V domains shown)
VH: EVQLKESGPGLVAPSQSLSITCTVSGFSLTSHGVSWVRQPPGKGLEWLGVIWGDGRTSYHSALISRLSISKSDSKSQVFLKLNSLQTDDTATYYCAKKGAYYGSDYRYYAMDSWGQGTSVTVSS
VL: DIQLTQTPLSLPVSLGDQASISCRSSQSLVYSNGNTYLHWYLQKPGQSPKLLIYKASNRFSGVPDRFSGSGSGTDFTLKISRVEAEDLGVYFCSQSTHVPWTFGGGTKLEIKR
notes: It was purified on Protein G from ascites or from cell supernatant; also called CD19抗体; 抗CD19的单克隆抗体
